Assay results from US20220268777A1.

Key:
protein PADI2 [1] = target: protein PADI2 (UniProt Q9Y2J8); test: sandwich ELISA, capture 197, dilution row A
[2] = target: protein PADI4 (peptidylarginine deiminase 4) antigen (human) (UniProt Q9UM07); test: sandwich ELISA, capture 197, dilution row A
protein PADI2 [3] = target: protein PADI2 (UniProt Q9Y2J8); test: sandwich ELISA, capture 197, dilution row B
[4] = target: protein PADI4 (peptidylarginine deiminase 4) antigen (human) (UniProt Q9UM07); test: sandwich ELISA, capture 197, dilution row B
protein PADI2 [5] = target: protein PADI2 (UniProt Q9Y2J8); test: sandwich ELISA, capture 197, dilution row C
[6] = target: protein PADI4 (peptidylarginine deiminase 4) antigen (human) (UniProt Q9UM07); test: sandwich ELISA, capture 197, dilution row C
protein PADI2 [7] = target: protein PADI2 (UniProt Q9Y2J8); test: sandwich ELISA, capture 197, dilution row D
[8] = target: protein PADI4 (peptidylarginine deiminase 4) antigen (human) (UniProt Q9UM07); test: sandwich ELISA, capture 197, dilution row D
protein PADI2 [9] = target: protein PADI2 (UniProt Q9Y2J8); test: sandwich ELISA, capture 197, dilution row E
[10] = target: protein PADI4 (peptidylarginine deiminase 4) antigen (human) (UniProt Q9UM07); test: sandwich ELISA, capture 197, dilution row E
protein PADI2 [11] = target: protein PADI2 (UniProt Q9Y2J8); test: sandwich ELISA, capture 197, dilution row F
[12] = target: protein PADI4 (peptidylarginine deiminase 4) antigen (human) (UniProt Q9UM07); test: sandwich ELISA, capture 197, dilution row F
protein PADI2 [13] = target: protein PADI2 (UniProt Q9Y2J8); test: sandwich ELISA, capture 197, dilution row G
[14] = target: protein PADI4 (peptidylarginine deiminase 4) antigen (human) (UniProt Q9UM07); test: sandwich ELISA, capture 197, dilution row G
protein PADI2 [15] = target: protein PADI2 (UniProt Q9Y2J8); test: sandwich ELISA, capture 197, dilution row H (maybe blank)
[16] = target: protein PADI4 (peptidylarginine deiminase 4) antigen (human) (UniProt Q9UM07); test: as above

UniProt Q9Y2J8, sequence (Q9Y2J8 whole entry): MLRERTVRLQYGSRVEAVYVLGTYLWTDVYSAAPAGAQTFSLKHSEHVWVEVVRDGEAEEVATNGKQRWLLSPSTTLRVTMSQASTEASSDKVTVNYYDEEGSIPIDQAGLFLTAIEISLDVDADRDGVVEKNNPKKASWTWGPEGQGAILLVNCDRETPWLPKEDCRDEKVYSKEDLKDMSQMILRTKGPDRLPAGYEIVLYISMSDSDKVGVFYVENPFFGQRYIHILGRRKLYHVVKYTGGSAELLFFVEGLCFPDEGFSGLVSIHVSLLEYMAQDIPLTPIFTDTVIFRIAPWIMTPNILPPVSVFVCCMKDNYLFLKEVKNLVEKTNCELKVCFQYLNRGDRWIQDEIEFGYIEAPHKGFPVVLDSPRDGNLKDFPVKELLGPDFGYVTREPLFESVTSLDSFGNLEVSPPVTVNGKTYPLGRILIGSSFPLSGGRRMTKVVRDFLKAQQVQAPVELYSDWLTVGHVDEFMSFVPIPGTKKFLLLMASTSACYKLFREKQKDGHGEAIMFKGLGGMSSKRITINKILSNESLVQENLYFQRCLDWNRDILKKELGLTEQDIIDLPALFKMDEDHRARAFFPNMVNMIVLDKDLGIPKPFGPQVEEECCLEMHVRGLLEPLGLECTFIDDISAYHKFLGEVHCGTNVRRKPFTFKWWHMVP

B1: monoclonal antibody 135-B9 (antibody, human IgG1, kappa, V domains shown)
VH: EVKLQESGPGILQPSQTLSLTCSFSGFSLSTSGMCVGWIRQPSGKGLEWLAHIWWDDDKRYNPALKSRLTISKDTSSNQVFLKIASVDTADTATYYCARYYRFDEGFDYWGQGTTLTVSS
VL: DIVITQDELSNPVTLGTSASISCRSSKSLLHSDGITYLYWYLQKPGQSPQLLIYQMSNLASGVPDRFSSSGSGTDFTLRISRVEAEDVGVYYCAQNLELPLTFGAGTKLELKR
Question: How did the OD (protein PADI2 [1]) turn out when B1 was run?
Answer: Its OD is 0.06 OD.

Question: What about the OD [2] of the same binder?
Answer: The OD was 4.13 OD.

Question: What about the OD (protein PADI2 [3]) of the same binder?
Answer: Its OD is 0.05 OD.

Question: What about the OD [4] of the same binder?
Answer: The OD was 3.95 OD.

Question: And the OD (protein PADI2 [5])?
Answer: The OD was 0.05 OD.

Question: What about the OD [6] of the same binder?
Answer: The OD was 3.53 OD.

Question: What about the OD (protein PADI2 [7]) of the same binder?
Answer: Its OD is 0.05 OD.

Question: What about the OD [8] of the same binder?
Answer: The OD was 2.47 OD.

Question: What about the OD (protein PADI2 [9]) of the same binder?
Answer: Its OD is 0.05 OD.

Question: What about the OD [10] of the same binder?
Answer: The OD was 1.69 OD.

Question: And the OD (protein PADI2 [11])?
Answer: Its OD is 0.05 OD.

Question: And the OD [12]?
Answer: Its OD is 0.92 OD.

Question: What about the OD (protein PADI2 [13]) of the same binder?
Answer: Its OD is 0.05 OD.

Question: What about the OD [14] of the same binder?
Answer: The OD was 0.46 OD.

Question: And the OD (protein PADI2 [15])?
Answer: Its OD is 0.06 OD.

Question: And the OD [16]?
Answer: The OD was 0.04 OD.
